According to paper PMC7906036 (Nature, 2020):
Read-outs that look alike come from different tables or passages of the source.

B1: Fab45D8 (Fab, V domains shown)
VH: EVQLQESGPGLAKPSQTLSLTCSVTGSSITSDYWNWIRKFPGNKLEYMGYISYSGSTYYNPSLKSQISITRDTSKNHYYLQLNSVTTEDTATYYCARQGLRNWYFDVWGTGTTVTVSS
VL: DIVLTQSPASLPVSLGQRATISCRASKSVSASAYSYMHWYQQKPGQPPKPLIYLASNLESGVPARFSGSGSGTDFTLNIHPVEEEDAATYYCQHNRELPYTFGGGTKLEIK

Columns and labels:
[1] = molecular target: human ferroportin (wild type) (human) (UniProt Q9NP59); assay: fluorescence polarisation
[2] = molecular target: human ferroportin (wild type) (human) (UniProt Q9NP59); assay: fluorescence polarisation; remark: listed apart in the source
[3] = molecular target: human ferroportin (wild type) (human) (UniProt Q9NP59); assay: fluorescence polarisation; remark: listed apart in the source
[4] = molecular target: human ferroportin (wild type) (human, UniProt Q9NP59); assay: SEC
[5] = molecular target: T1, Rhodamine green-hepcidin (Homo sapiens, not fully specified; rhodamine green at position 17); assay: fluorescence polarisation
T1 chain: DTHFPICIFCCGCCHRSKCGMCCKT

Sequence of human ferroportin (wild type) (human) (Q9NP59 whole entry): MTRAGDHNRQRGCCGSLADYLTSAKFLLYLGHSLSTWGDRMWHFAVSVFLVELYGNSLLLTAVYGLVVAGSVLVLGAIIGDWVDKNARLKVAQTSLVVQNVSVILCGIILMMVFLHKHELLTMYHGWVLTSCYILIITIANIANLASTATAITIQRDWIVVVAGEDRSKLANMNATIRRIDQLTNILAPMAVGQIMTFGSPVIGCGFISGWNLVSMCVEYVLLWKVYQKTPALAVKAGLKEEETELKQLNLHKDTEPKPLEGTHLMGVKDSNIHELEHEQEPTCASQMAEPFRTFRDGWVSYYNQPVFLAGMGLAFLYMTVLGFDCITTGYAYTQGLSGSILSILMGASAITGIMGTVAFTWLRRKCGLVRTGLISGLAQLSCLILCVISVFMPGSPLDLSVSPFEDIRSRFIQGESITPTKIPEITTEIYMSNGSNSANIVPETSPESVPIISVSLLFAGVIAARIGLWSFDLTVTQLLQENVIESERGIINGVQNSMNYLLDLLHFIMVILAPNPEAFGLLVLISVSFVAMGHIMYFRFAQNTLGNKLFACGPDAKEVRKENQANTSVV
Sequence of human ferroportin (wild type) (Q9NP59 whole entry): as above

| Molecule | Kd [1] | Kd [2] | Kd [3] | binding result [4] | binding result [5] |
| --- | --- | --- | --- | --- | --- |
| Rhodamine green-hepcidin (peptide) | 2.5 nM | 7.7 nM | 210 nM |  |  |
| B1 |  |  |  | binds | no binding |
